Where “and” joins values, the source holds several entries; their conditions need not be identical. Identical values can stand only once.
Tests used:
Assay type in all cases: binding
Details in all cases: response relative to ADIFAB2
[1] = Probe fluorescence ratio response to linoleic acid relative to ADIFAB2
Description: (§1) In an alternate preferred embodiment, the protein is rI-FABP that has Ala substituted for Leu at position 72 (rI-FABP-L72A) with the resulting probe named ADIFAB2. […] Other probes useful in embodiments of the invention are shown in Tables 1-6 and are also described in U.S. application Ser. No. 11/085,792, filed Mar. 21, 2005 which is incorporated herein by reference. The indicated substitutions are with reference to the ADIFAB protein of SEQ ID NO: 2.
(§2) ADIFAB2 also has an altered spectral response, making it especially useful for measurements of FFAu in blood samples (Apple et al, Clinical Proteomics, (2004) 1:41-44, U.S. patent application Ser. No. 10/670,958). The wavelengths at the maximum intensities emitted by these fluorescently-labeled I-FABP's in the absence of FFA is about 420 to 480 nm. The emission wavelengths at the maximum intensities emitted by these fluorescently-labeled I-FABP's with FFA bound are between about 495 to 580 nm. Experiments typically involve measuring the fluorescence response within both emission maxima or at wavelengths for which the effect of interfering molecules such as hemoglobin can be eliminated as described in U.S. application Ser. No. 10/670958 and PCT/US2004/030521 and the calculation of the ratio ‘R’ of the two fluorescence intensities. The baseline value for this ratio, measured in the absence of analyte, is designated R0.
(§3) The intensity ratio (“R” value) is determined as follows. The ratio is calculated using the following formula: R=Fλ1/Fλ2 wherein, Fλ1 is the measured fluorescence intensities (intensity of sample with probe present minus intensity of sample without probe present) at wavelength 1 and Fλ2 is the measured fluorescence intensities (intensity of sample with probe present minus intensity of sample without probe present) at wavelength 2. Then, for a given probe, ΔR, the difference in R value between the measurement in the presence of the test compound (agent) and in the absence of the test compound (agent), is calculated as follows: ΔR=R+agent−R0 In some embodiments, the ΔR value may then be compared to some reference, for example, an agent with a known affinity for a given probe, by ΔR/ΔRreference. Measurements of fluorescence intensities are obtained using standard techniques.

[2] = Probe fluorescence ratio response to palmitic acid relative to ADIFAB2
Description: as §1, §2, §3

[3] = Probe fluorescence ratio response to linolenic acid relative to ADIFAB2
Description: as §1, §2, §3

[4] = Probe fluorescence ratio response to arachidonic acid relative to ADIFAB2
Description: as §1, §2, §3

[5] = Probe fluorescence ratio response to oleic acid relative to ADIFAB2
Description: as §1, §2, §3

Molecule | DR/DR LA [1] | DR/DR PA [2] | DR/DR LNA [3] | DR/DR AA ([4]; arachidonic acid) | DR/DR OA [5] | DR/DR AA ([4]; Arachidonic acid)
117E, 72A (protein, listed as Rattus norvegicus, PEPTIDE (1)...(131) wild-type rat intestinal fatty acid binding protein) AFDGTWKVDRNENYEKFMEKMGINVVKRKLGAHDNLKLTITQEGNKFTVKESSNFRNIDVVFELGVDFAYSAADGTELTGTWTMEGNKLVGKFKRVDNGKELIAVREISGNELIQTETYEGVEAKRIFKKE | 0.76 and 0.753 | 0.40 and 0.402 | 0.64 and 0.638 | 0.65 and 0.656 | 0.65 and 0.659 | –
117P, 72A (protein, listed as Rattus norvegicus, PEPTIDE (1)...(131) wild-type rat intestinal fatty acid binding protein) AFDGTWKVDRNENYEKFMEKMGINVVKRKLGAHDNLKLTITQEGNKFTVKESSNFRNIDVVFELGVDFAYSAADGTELTGTWTMEGNKLVGKFKRVDNGKELIAVREISGNELIQTPTYEGVEAKRIFKKE | 0.86 | 0.38 | 0.83 | 0.80 | 0.73 | –
117L, 72A (protein, listed as Rattus norvegicus, PEPTIDE (1)...(131) wild-type rat intestinal fatty acid binding protein) AFDGTWKVDRNENYEKFMEKMGINVVKRKLGAHDNLKLTITQEGNKFTVKESSNFRNIDVVFELGVDFAYSAADGTELTGTWTMEGNKLVGKFKRVDNGKELIAVREISGNELIQTLTYEGVEAKRIFKKE | 0.43 | 0.29 | 0.39 | 0.38 | 0.35 | –
117M, 72A (protein, listed as Rattus norvegicus, PEPTIDE (1)...(131) wild-type rat intestinal fatty acid binding protein) AFDGTWKVDRNENYEKFMEKMGINVVKRKLGAHDNLKLTITQEGNKFTVKESSNFRNIDVVFELGVDFAYSAADGTELTGTWTMEGNKLVGKFKRVDNGKELIAVREISGNELIQTMTYEGVEAKRIFKKE | 1.31 | 1.14 | 1.36 | 1.27 | 1.32 | –
102D, 72A (protein, listed as Rattus norvegicus, PEPTIDE (1)...(131) wild-type rat intestinal fatty acid binding protein) AFDGTWKVDRNENYEKFMEKMGINVVKRKLGAHDNLKLTITQEGNKFTVKESSNFRNIDVVFELGVDFAYSAADGTELTGTWTMEGNKLVGKFKRVDNGKEDIAVREISGNELIQTYTYEGVEAKRIFKKE | 0.63 | 0.28 | 0.61 | 0.52 | 0.59 | –
74F, 72A (protein, listed as Rattus norvegicus, PEPTIDE (1)...(131) wild-type rat intestinal fatty acid binding protein) AFDGTWKVDRNENYEKFMEKMGINVVKRKLGAHDNLKLTITQEGNKFTVKESSNFRNIDVVFELGVDFAYSAAFGTELTGTWTMEGNKLVGKFKRVDNGKELIAVREISGNELIQTYTYEGVEAKRIFKKE | 1.19 and 0.67 | 1.23 and 0.93 | 1.36 and 1.04 | 0.44 | – | 1.02
117N, 72A (protein, listed as Rattus norvegicus, PEPTIDE (1)...(131) wild-type rat intestinal fatty acid binding protein) AFDGTWKVDRNENYEKFMEKMGINVVKRKLGAHDNLKLTITQEGNKFTVKESSNFRNIDVVFELGVDFAYSAADGTELTGTWTMEGNKLVGKFKRVDNGKELIAVREISGNELIQTNTYEGVEAKRIFKKE | 1.35 | 1.19 | 1.37 | 1.33 | 1.40 | –
117H, 72A (protein, listed as Rattus norvegicus, PEPTIDE (1)...(131) wild-type rat intestinal fatty acid binding protein) AFDGTWKVDRNENYEKFMEKMGINVVKRKLGAHDNLKLTITQEGNKFTVKESSNFRNIDVVFELGVDFAYSAADGTELTGTWTMEGNKLVGKFKRVDNGKELIAVREISGNELIQTHTYEGVEAKRIFKKE | 1.06 and 1.056 | 0.63 and 0.659 | 0.94 and 0.924 | 0.90 and 0.913 | 1.01 and 1.012 | –
117Q, 72A (protein, listed as Rattus norvegicus, PEPTIDE (1)...(131) wild-type rat intestinal fatty acid binding protein) AFDGTWKVDRNENYEKFMEKMGINVVKRKLGAHDNLKLTITQEGNKFTVKESSNFRNIDVVFELGVDFAYSAADGTELTGTWTMEGNKLVGKFKRVDNGKELIAVREISGNELIQTQTYEGVEAKRIFKKE | 1.37 and 1.374 | 0.63 and 0.631 | 1.24 and 1.236 | 1.21 and 1.214 | 1.13 and 1.134 | –
117F, 72A (protein, listed as Rattus norvegicus, PEPTIDE (1)...(131) wild-type rat intestinal fatty acid binding protein) AFDGTWKVDRNENYEKFMEKMGINVVKRKLGAHDNLKLTITQEGNKFTVKESSNFRNIDVVFELGVDFAYSAADGTELTGTWTMEGNKLVGKFKRVDNGKELIAVREISGNELIQTFTYEGVEAKRIFKKE | 1.36 | 1.20 | 1.38 | 1.33 | 1.37 | –
117G, 72A (protein, listed as Rattus norvegicus, PEPTIDE (1)...(131) wild-type rat intestinal fatty acid binding protein) AFDGTWKVDRNENYEKFMEKMGINVVKRKLGAHDNLKLTITQEGNKFTVKESSNFRNIDVVFELGVDFAYSAADGTELTGTWTMEGNKLVGKFKRVDNGKELIAVREISGNELIQTGTYEGVEAKRIFKKE | 0.92 | 0.39 | 0.85 | 0.88 | 0.84 | –
117R, 72A (protein, listed as Rattus norvegicus, PEPTIDE (1)...(131) wild-type rat intestinal fatty acid binding protein) AFDGTWKVDRNENYEKFMEKMGINVVKRKLGAHDNLKLTITQEGNKFTVKESSNFRNIDVVFELGVDFAYSAADGTELTGTWTMEGNKLVGKFKRVDNGKELIAVREISGNELIQTRTYEGVEAKRIFKKE | 0.70 | 0.31 | 0.70 | 0.64 | 0.61 | –
117K, 72A (protein, listed as Rattus norvegicus, PEPTIDE (1)...(131) wild-type rat intestinal fatty acid binding protein) AFDGTWKVDRNENYEKFMEKMGINVVKRKLGAHDNLKLTITQEGNKFTVKESSNFRNIDVVFELGVDFAYSAADGTELTGTWTMEGNKLVGKFKRVDNGKELIAVREISGNELIQTKTYEGVEAKRIFKKE | 0.43 | 0.22 | 0.37 | 0.34 | 0.04 | –
117I, 72A (protein, listed as Rattus norvegicus, PEPTIDE (1)...(131) wild-type rat intestinal fatty acid binding protein) AFDGTWKVDRNENYEKFMEKMGINVVKRKLGAHDNLKLTITQEGNKFTVKESSNFRNIDVVFELGVDFAYSAADGTELTGTWTMEGNKLVGKFKRVDNGKELIAVREISGNELIQTITYEGVEAKRIFKKE | 0.80 and 0.789 | 0.41 and 0.408 | 0.68 and 0.666 | 0.68 and 0.674 | 0.67 and 0.676 | –

Source: US20060257938A1, “Method of screening for drugs that block ligand binding to a lipid binding protein” (priority 2005, published 2006)
